From publication PMC10533564 (Communications Biology, 2023)
Where a chain is given by its changes, count along the chain named. One block for each binder: values may come before it.

Columns and labels:
[1] = target: T1, sTNFR2, monomeric extracellular domains of TNFR2 obtained from etanercept (Homo sapiens, UniProt P20333); assay: SPR; antibody captured (~400 RU) on anti-human IgG Fc on a CM5 chip, sTNFR2 as analyte in twofold dilution series; PBS with 0.005% Tween 20, pH 7.4, 25 °C; 1:1 global kinetics fit; settings: both partners purified
T1 construct: extracellular domains of TNFR2 as in etanercept; also called TNFR2 ECD; source: from etanercept (Pfizer): IdeS digestion, reduction with 2-mercaptoethylamine, purified (Protein A flow-through, SEC); not shown: Fc (human IgG1, of etanercept), C-terminal, cleaved

[2] = target: T2, tumor necrosis factor-alpha (TNFα) (UniProt P01375); assay: SPR; TNFα immobilised on a CM5 chip by amine coupling (140 RU); antibodies 10 nM or 100 nM flowed; HBS-EP+, 25 °C; settings: both partners purified
T2 construct: tumor necrosis factor-alpha; source: bought: Peprotech #AF-200-01A (named for the reporter assay)
T2 sequence (P01375 77-233): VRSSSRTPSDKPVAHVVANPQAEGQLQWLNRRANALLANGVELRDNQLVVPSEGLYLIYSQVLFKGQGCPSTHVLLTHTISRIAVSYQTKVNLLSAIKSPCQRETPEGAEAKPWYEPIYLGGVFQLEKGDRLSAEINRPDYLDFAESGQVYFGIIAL

- Kd [1]: 19 nM
B1: TR45 chimeric conventional IgG (antibody, V domains shown)
VH: EVQLQQSGPEMEKPGASVKISCKASGYSFTGYNMNWVKQSIGKSLEWIGKIDPYYGGTDYNLRFKDKATLTVDKSSSTAYMHLSRLTSEDSAVYYCAREPNYGSNDWYFDVWGAGTTVTVSS
VL: DIQVTQTTSSLSASLGDRVTISCRASQDIDNYLNWYQQRPDGTVKLLIYYTSILHSGVPSRFSGSGSRTDFSLTISSLEEEDFATYFCQQGNTLPWTFGGGTKLEFK

B2: TR45 cIgG (chimeric, human IgG1/kappa) (antibody, V domains shown)
VH: B1 VH
VL: B1 VL
- binding result [2]: no binding (tested: 10 nM or 100 nM)

- Kd [1]: 0.42 nM
- koff [1]: 0.00024 s⁻¹
- kon [1]: 580000 M⁻¹ s⁻¹
B3: TR96 chimeric conventional IgG (antibody, V domains shown)
VH: EVQLQQSGAELVKPGASVKLSCTPSGFNIKDTYMHWVKQRPEQGLEWIGRIDPANGYTEYDPKFQDKATITADTSSNTAYLQLSSLTSEDTAVYYCADTQLYYWGQGTTLTVSS
VL: QIVLTQSPAIMSASLGERVTMTCTASSSVSSTYLHWYQQKPGSSPKLWIYSTSNLASGVPARFSGSGSGTSYSLTISNMEAEDAATYYCHQYHRSPLTFGAGTKLELK

B4: TR94 cIgG (chimeric, human IgG1/kappa) (antibody, V domains shown)
VH: QVQLQQSGAELARPGTSVKLSCKASGYTFTSYWMQWVKQTPGQGLEWIGAIYPGDGDSRYIQKFKGKATLTADKSSSTAYMQLSSLASEDSAVYYCARDGNYYAMDYWGQGTSVTVSS
VL: B3 VL with M21I, N78S, L97P
- binding result [2]: no binding (tested: 10 nM or 100 nM)

B5: TR96 cIgG (chimeric, human IgG1/kappa) (antibody, V domains shown)
VH: B3 VH
VL: B3 VL
- binding result [2]: no binding (tested: 10 nM or 100 nM)

- Kd [1]: 4 nM
B6: TR92 chimeric conventional IgG (antibody, V domains shown)
VH: KVQLQQSGAELVKPGASVKLSCKASGYTFTESIIHWVKQRSGQGLEWIGWFYPGSDNINYNEKFKDKATLTADKSSSTVYMELTRLTSEDSAVYFCASHEGPYVYFDYWGQGTTLTVSS
VL: DIVMTQSHKFMSTSVGDRVSITCKASQDVSTAVAWYQQKPGQSPKLLIYWTSTRHTGVPDRFTGSGSGTDYTLTISSVQAEDLALYYCQHHYSTPYTFGGGTKLEIQ

B7: TR92 cIgG (chimeric, human IgG1/kappa) (antibody, V domains shown)
VH: B6 VH
VL: B6 VL
- binding result [2]: no binding (tested: 10 nM or 100 nM)

- Kd [1]: 5.6 nM
B8: TR109 chimeric conventional IgG (antibody, V domains shown)
VH: QVQLKESGPGLVAPSQSLSITCTVSGFSLTVYGVNWVRQPPGKGLEWLGMIWGDGSTAYNSALKSRLTITKDNSKTQVFLKMNSLQTDDTARYYCARDGRRYALDYWGQGTSVTVSS
VL: DIVLTQSPTSLAVSLGQRATISCRASESVDSYGDSFLHWYQQKPGQPPILLIYRASNLDSGIPARFSGSGSRTDFTLTINPVEADDVATYYCQQSNEDPYTFGGGTKLEIK

B9: TR109 cIgG (chimeric, human IgG1/kappa) (antibody, V domains shown)
VH: B8 VH
VL: B8 VL
- binding result [2]: no binding (tested: 10 nM or 100 nM)
